Source: the MegaScale stability set (Tsuboyama et al. 2023)

B1: r16_88_TrROS_Hall (parent)
chain: EVIELKIKFKTPEQREKLKEIAKKLNAEVVEEKDGEVIIRFKTPEQAERALKEAEKLGAEVEL

Variants of: B1
Test: folding stability dG (cDNA display proteolysis); higher = more stable
Conditions: PBS, room temperature

| Variant | folding stability dG |
| --- | --- |
| E48H | 4.52 kcal/mol |
| E48I | 4.17 kcal/mol |
| E48K | 4.67 kcal/mol |
| E48L | 4.29 kcal/mol |
| E48M | 4.46 kcal/mol |
| E48N | 4.62 kcal/mol |
| E48P | 3.89 kcal/mol |
| E48Q | 4.37 kcal/mol |
| E48R | 4.25 kcal/mol |
| E48S | 4.39 kcal/mol |
| E48T | 4.28 kcal/mol |
| E48V | 4.17 kcal/mol |
| E48W | 4.47 kcal/mol |
| E48Y | 4.67 kcal/mol |
| R49A | 4.37 kcal/mol |
| R49C | 4.42 kcal/mol |
| R49D | 4.56 kcal/mol |
| R49E | 4.52 kcal/mol |
| R49F | 4.76 kcal/mol |
| R49G | 4.37 kcal/mol |
| R49H | 4.4 kcal/mol |
| R49I | 4.49 kcal/mol |
| R49K | 4.15 kcal/mol |
| R49L | 4.53 kcal/mol |

| Variant | folding stability dG |
| --- | --- |
| R49M | 4.46 kcal/mol |
| R49N | 4.35 kcal/mol |
| R49P | 4.17 kcal/mol |
| R49Q | 4.41 kcal/mol |
| R49S | 4.48 kcal/mol |
| R49T | 4.04 kcal/mol |
| R49V | 4.5 kcal/mol |
| R49Y | 4.93 kcal/mol |
| A50C | 4.36 kcal/mol |
| A50D | 2.77 kcal/mol |
| A50E | 3.34 kcal/mol |
| A50F | 4.38 kcal/mol |
| A50G | 4.46 kcal/mol |
| A50H | 3.68 kcal/mol |
| A50I | 4.4 kcal/mol |
| A50K | 2.55 kcal/mol |
| A50L | 4.28 kcal/mol |
| A50M | 4.3 kcal/mol |
| A50N | 3.58 kcal/mol |
| A50P | 2.96 kcal/mol |
| A50Q | 3.84 kcal/mol |
| A50R | 2.59 kcal/mol |
| A50S | 3.9 kcal/mol |
| A50T | 4.26 kcal/mol |

| Variant | folding stability dG |
| --- | --- |
| A50V | 4.41 kcal/mol |
| A50W | 4.69 kcal/mol |
| A50Y | 4.43 kcal/mol |
| L51A | 4.43 kcal/mol |
| L51C | 4.41 kcal/mol |
| L51D | 3.96 kcal/mol |
| L51F | 4.4 kcal/mol |
| L51G | 4.45 kcal/mol |
| L51H | 4.79 kcal/mol |
| L51I | 4.41 kcal/mol |
| L51K | 4.61 kcal/mol |
| L51M | 4.4 kcal/mol |
| L51N | 4.3 kcal/mol |
| L51P | 2.79 kcal/mol |
| L51Q | 4.53 kcal/mol |
| L51R | 4.61 kcal/mol |
| L51S | 4.59 kcal/mol |
| L51T | 4.76 kcal/mol |
| L51V | 4.39 kcal/mol |
| L51W | 4.25 kcal/mol |
| L51Y | 4.08 kcal/mol |
| K52A | 4.52 kcal/mol |
| K52C | 4.33 kcal/mol |
| K52D | 4.25 kcal/mol |

| Variant | folding stability dG |
| --- | --- |
| K52E | 4.07 kcal/mol |
| K52F | 4.62 kcal/mol |
| K52G | 4.44 kcal/mol |
| K52H | 4.31 kcal/mol |
| K52I | 4.03 kcal/mol |
| K52L | 4.44 kcal/mol |
| K52M | 4.28 kcal/mol |
| K52N | 4.26 kcal/mol |
| K52P | 3.91 kcal/mol |
| K52Q | 4.1 kcal/mol |
| K52R | 4.45 kcal/mol |
| K52S | 4.28 kcal/mol |
| K52T | 4.23 kcal/mol |
| K52V | 4.2 kcal/mol |
| K52W | 4.43 kcal/mol |
| K52Y | 4.67 kcal/mol |
| E53A | 4.13 kcal/mol |
| E53C | 4.4 kcal/mol |
| E53D | 4.34 kcal/mol |
| E53F | 4.49 kcal/mol |
| E53G | 4.07 kcal/mol |
| E53H | 4.17 kcal/mol |
| E53I | 4.27 kcal/mol |
| E53K | 4.02 kcal/mol |

| Variant | folding stability dG |
| --- | --- |
| E53L | 4.61 kcal/mol |
| E53M | 4.39 kcal/mol |
| E53N | 3.87 kcal/mol |
| E53P | 3.08 kcal/mol |
| E53Q | 4.42 kcal/mol |
| E53R | 4.03 kcal/mol |
| E53S | 4.21 kcal/mol |
| E53T | 4.03 kcal/mol |
| E53V | 4.36 kcal/mol |
| E53W | 4.37 kcal/mol |
| E53Y | 4.3 kcal/mol |
| A54C | 4.41 kcal/mol |
| A54D | 2.86 kcal/mol |
| A54E | 3.03 kcal/mol |
| A54F | 4.35 kcal/mol |
| A54G | 4.09 kcal/mol |
| A54H | 3.5 kcal/mol |
| A54I | 4.43 kcal/mol |
| A54K | 3.51 kcal/mol |
| A54L | 4.35 kcal/mol |
| A54M | 4.44 kcal/mol |
| A54N | 3.65 kcal/mol |
| A54P | 2.86 kcal/mol |
| A54Q | 3.6 kcal/mol |

| Variant | folding stability dG |
| --- | --- |
| A54R | 3.4 kcal/mol |
| A54S | 4.45 kcal/mol |
| A54T | 4.19 kcal/mol |
| A54V | 4.43 kcal/mol |
| A54W | 4.08 kcal/mol |
| A54Y | 4.16 kcal/mol |
| E55A | 4.43 kcal/mol |
| E55C | 4.43 kcal/mol |
| E55D | 4.27 kcal/mol |
| E55F | 4.59 kcal/mol |
| E55G | 4.22 kcal/mol |
| E55H | 4.21 kcal/mol |
| E55I | 4.46 kcal/mol |
| E55K | 4.3 kcal/mol |
| E55L | 4.45 kcal/mol |
| E55M | 4.37 kcal/mol |
| E55N | 4.42 kcal/mol |
| E55P | 3.67 kcal/mol |
| E55Q | 4.48 kcal/mol |
| E55R | 4.57 kcal/mol |
| E55S | 4.51 kcal/mol |
| E55T | 4.31 kcal/mol |
| E55V | 4.51 kcal/mol |
| E55W | 4.58 kcal/mol |

| Variant | folding stability dG |
| --- | --- |
| E55Y | 4.66 kcal/mol |
| K56A | 4.49 kcal/mol |
| K56C | 4.41 kcal/mol |
| K56D | 4.21 kcal/mol |
| K56E | 4.28 kcal/mol |
| K56F | 4.23 kcal/mol |
| K56G | 4.53 kcal/mol |
| K56H | 4.33 kcal/mol |
| K56I | 4.52 kcal/mol |
| K56L | 4.5 kcal/mol |
| K56M | 4.57 kcal/mol |
| K56N | 4.44 kcal/mol |
| K56P | 4.5 kcal/mol |
| K56Q | 4.43 kcal/mol |
| K56R | 4.15 kcal/mol |
| K56S | 4.51 kcal/mol |
| K56T | 4.48 kcal/mol |
| K56V | 4.45 kcal/mol |
| K56W | 4.26 kcal/mol |
| K56Y | 4.41 kcal/mol |
| L57A | 4.15 kcal/mol |
| L57C | 4.2 kcal/mol |
| L57D | 4.08 kcal/mol |
